For test [1], the target named is subunit L of the Thermus thermophilus rotary ATPase (L12 membrane ring) (Thermus thermophilus). Nature of the test: native MS.
The target of test [2] is membranous subcomplex VO (ICL12) of the Thermus thermophilus rotary ATPase (Thermus thermophilus) (UniProt P74902). In words: native MS.

“subunit L of the Thermus thermophilus rotary ATPase (L12 membrane ring) (natural protein)” returned a stoichiometry N in test [1] of 12. With “peripheral stalk (subunits E and G) of the Thermus thermophilus rotary ATPase (from UniProt P74901 1-188) (complex)”, the stoichiometry N in test [2] was found to be 2.

As a reminder, the stoichiometry N is a count of units in the complex or per binding partner.

(Values after publication PMC3927129.)
